± gives the uncertainty stated by the source.
B1: V(D)J recombination-activating protein 2, residues 415 to 491; numbered along this chain, P55895 (parent)
chain: YWITCCPTCDVDINTWVPFYSTELNKPAMIYCSHGDGHWVHAQCMDLAERTLIHLSAGSNKYYCNEHVEIARALHTP

Variants of: B1
Experiment: abundance fitness (aPCA) (normalised: wild type 0, dead -1); higher = more abundant; growth selection in yeast, the domain comes from the species named
Settings: Homo sapiens

| Variant | abundance fitness |
| --- | --- |
| H67I | -0.874 ± 0.31 |
| H67W | -0.484 ± 0.055 |
| H67P | -0.369 ± 0.069 |
| H67R | -0.253 ± 0.034 |
| F19A | -0.305 ± 0.13 |
| F19W | 0.043 ± 0.19 |
| C6R | -0.432 ± 0.17 |
| C6V | -0.096 ± 0.26 |
| I3V | -0.053 ± 0.042 |
| I3C | -0.117 ± 0.057 |
| I3F | 0.044 ± 0.082 |
| I3N | -0.053 ± 0.15 |
| I3W | -0.159 ± 0.068 |
| T76S | -0.046 ± 0.077 |
| T76V | -0.074 ± 0.064 |
| L24Y | -0.337 ± 0.32 |
| V17I | -0.153 ± 0.2 |
| V17R | -0.022 ± 0.13 |
| V17P | -0.375 ± 0.49 |
| V17S | -0.01 ± 0.2 |
| E69V | -0.14 ± 0.2 |

| Variant | abundance fitness |
| --- | --- |
| Y63W | 0.115 ± 0.12 |
| T15H | 0.03 ± 0.29 |
| G58S | -0.038 ± 0.071 |
| G58F | -0.221 ± 0.14 |
| G58T | -0.199 ± 0.085 |
| G35L | -0.042 ± 0.15 |
| G35I | -0.07 ± 0.3 |
| I30L | 0.122 ± 0.14 |
| C64S | -0.803 ± 0.12 |
| C64V | -0.557 ± 0.081 |
| C64A | -1.01 ± 0.16 |
| C64T | -1.05 ± 0.4 |
| T22M | 0.389 ± 0.36 |
| H54M | -0.087 ± 0.12 |
| H54Y | -0.183 ± 0.24 |
| Q43M | -0.048 ± 0.19 |
| Q43R | 0.129 ± 0.17 |
| W16T | -0.144 ± 0.38 |
| V11M | -0.264 ± 0.19 |
| V11S | -0.437 ± 0.14 |
| V11G | -0.697 ± 0.14 |

| Variant | abundance fitness |
| --- | --- |
| V11W | -0.178 ± 0.29 |
| S21R | -0.111 ± 0.12 |
| S21T | -0.321 ± 0.12 |
| A57T | -0.121 ± 0.12 |
| A57K | -0.111 ± 0.12 |
| A57Y | -0.108 ± 0.19 |
| T4Q | -0.185 ± 0.077 |
| T4W | -0.297 ± 0.07 |
| T4R | -0.013 ± 0.035 |
| T4K | -0.048 ± 0.069 |
| R50I | 0.067 ± 0.11 |
| R50H | 0.037 ± 0.14 |
| N60G | -0.017 ± 0.066 |
| N60Q | -0.069 ± 0.08 |
| N60H | -0.084 ± 0.054 |
| P77G | -0.157 ± 0.35 |
| P77N | -0.325 ± 0.35 |
| V68G | 0 ± 0.091 |
| V68I | -0.318 ± 0.2 |
| V68A | -0.173 ± 0.14 |
| V68W | -0.076 ± 0.2 |

| Variant | abundance fitness |
| --- | --- |
| K26E | -0.129 ± 0.44 |
| K26T | -0.074 ± 0.38 |
| K26L | -0.063 ± 0.14 |
| K26W | 0.023 ± 0.18 |
| K26S | -0.174 ± 0.28 |
| L55D | -0.152 ± 0.12 |
| L55P | -0.218 ± 0.078 |
| L55Y | -0.027 ± 0.083 |
| S56E | 0.058 ± 0.065 |
| S56N | -0.194 ± 0.1 |
| N25R | -0.052 ± 0.14 |
| N25T | -0.05 ± 0.17 |
| N25V | 0.065 ± 0.21 |
| P7L | -0.065 ± 0.2 |
| S33N | -0.06 ± 0.094 |
| S33D | 0.035 ± 0.078 |
| S33R | -0.147 ± 0.04 |
| D12F | -0.244 ± 0.38 |
| D12G | -0.04 ± 0.14 |
| D12N | -0.01 ± 0.37 |

Source: the Human Domainome abundance scans (Beltran et al. 2025)
